Values quoted from earlier work in paper PMC8395526.
pKd: −log10 of the molar value.

Biological target: erbB2 (Homo sapiens) (UniProt P04626)
Test: SPR

Substance: erbB2-SbdIV subdomain IV (from UniProt P04626)
- pKd: 5.72
